From patent US20130315914A1 (NOVIMMUNE, published 2013)
Where a chain is given by its changes, count along the chain named. Numbers in names are those of the source. Each block holds one binder with its values, some of them ahead of it.

Columns and labels:
[1] = target: T1, cynomolgus monkey TLR4 expressed on stably transfected CHO-K1 cells (cynomolgus monkey, UniProt Q9TSP2 24-826 (Papio anubis entry)); experiment: summary table of species specificity (flow cytometry results)
T1 construct: Transfected alone; also called CHO cells expressing the cynomolgus monkey TLR4
T1 chain: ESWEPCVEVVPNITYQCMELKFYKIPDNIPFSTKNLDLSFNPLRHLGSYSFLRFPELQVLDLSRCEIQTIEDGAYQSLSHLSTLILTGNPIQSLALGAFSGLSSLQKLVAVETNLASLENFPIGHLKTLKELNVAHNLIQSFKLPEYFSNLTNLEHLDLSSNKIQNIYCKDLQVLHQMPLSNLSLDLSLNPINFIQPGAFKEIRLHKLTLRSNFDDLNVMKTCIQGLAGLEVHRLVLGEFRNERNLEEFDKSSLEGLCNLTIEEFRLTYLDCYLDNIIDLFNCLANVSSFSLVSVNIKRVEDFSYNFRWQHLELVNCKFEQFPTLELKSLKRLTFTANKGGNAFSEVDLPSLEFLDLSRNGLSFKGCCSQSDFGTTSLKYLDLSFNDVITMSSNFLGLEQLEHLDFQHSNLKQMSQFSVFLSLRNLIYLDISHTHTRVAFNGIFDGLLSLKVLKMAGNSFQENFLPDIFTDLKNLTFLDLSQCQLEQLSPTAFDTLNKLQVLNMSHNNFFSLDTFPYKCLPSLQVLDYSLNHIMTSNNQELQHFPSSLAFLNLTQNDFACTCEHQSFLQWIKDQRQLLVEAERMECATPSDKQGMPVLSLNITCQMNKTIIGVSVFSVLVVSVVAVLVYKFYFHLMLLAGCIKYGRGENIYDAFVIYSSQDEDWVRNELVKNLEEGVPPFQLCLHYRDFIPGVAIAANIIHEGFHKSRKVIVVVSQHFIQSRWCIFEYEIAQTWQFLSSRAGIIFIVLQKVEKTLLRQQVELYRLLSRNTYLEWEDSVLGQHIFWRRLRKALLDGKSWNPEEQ
Experimental: (§1) 10⁵ CHO cells or CHO cells expressing the cynomolgus monkey TLR4 were incubated in phosphate-buffered saline, 2% bovine serum albumin with different concentrations of purified antibodies selected by FMAT (1A1, 1A6, 1B12, 1C7, 1C10, 1C12, 1D10, 1E11, 1G12) with 15C1 as control. Cells were washed in phosphate-buffered saline, 2% bovine serum albumin and incubated in Alexa Fluor® 647 goat anti human IgG (H+L) (1:200; Invitrogen). Cells were analyzed using a FACS calibur cytometer (BD Biosciences).
Similar experiments were conducted with CHO cells or CHO cells expressing the human TLR4/MD2 complex. […] 1C12 Mab was also able to bind to human TLR4 but with a lower potency compared to 1E11 and 15C1 Mabs.

[2] = target: T1, cynomolgus monkey TLR4 expressed on …; experiment: flow cytometry; purified IgG on CHO cells expressing cynomolgus TLR4
Experimental: as §1

[3] = target: human TLR4 in human whole blood (human); experiment: cell-based or functional assay
[4] = target: T2, soluble histidine-tagged form of human TLR4/MD2 complex (human, UniProt Q9Y6Y9 19-160); experiment: competitive ELISA; coated 15C1 as competitor, soluble His-tagged human TLR4/MD2, Penta-His-HRP
T2 sequence (Q9Y6Y9 19-160, one chain of several): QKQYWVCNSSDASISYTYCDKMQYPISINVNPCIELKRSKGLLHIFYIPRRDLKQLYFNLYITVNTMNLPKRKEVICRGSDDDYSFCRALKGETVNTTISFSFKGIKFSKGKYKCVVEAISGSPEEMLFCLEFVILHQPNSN
Experimental: (§2) The VH and VL cDNA sequences in their appropriate expression vectors were transfected into mammalian cells using the Fugene 6 Transfection Reagent (Roche, Basel, Switzerland). Briefly, Peak cells were cultured in 6-well plates at a concentration of 6×10⁵ cells per well in 2 mL culture media containing fetal bovine serum. The expression vectors, encoding the candidate VH and VL sequences, were co-transfected into the cells using the Fugene 6 Transfection Reagent according to manufacturer's instructions. One day following transfection, the culture media was aspirated, and 3 mL of fresh serum-free media was added to cells and cultured for three days at 37° C. Following three days culture period, the supernatant was harvested for IgG purified on protein G-Sepharose 4B fast flow columns (Sigma, St. Louis, Mo.) according to manufacturer's instructions. Briefly, supernatants from transfected cells were incubated overnight at 4° C. with ImmunoPure (G) IgG binding buffer (Pierce, Rockford Ill.). Samples were then passed over Protein G-Sepharose 4B fast flow columns and the IgG consequently purified using elution buffer. The eluted IgG fraction was then dialyzed against PBS and the IgG content quantified by absorption at 280 nm. Purity and IgG integrity were verified by SDS-PAGE. Relative binding potency of 1E11 variants was assessed by competitive ELISA. Briefly, 15C1 antibody was coated overnight in a 96-well Maxisorp plate and then blocked with PBS-BSA. The 15C1 reference antibody and affinity matured variants of 1E11 were added to the plate at a fixed concentration and a 3.5-fold serial dilution of the samples was performed. Then, soluble histidine-tagged form of human TLR4/MD2 complex was added to the plate at a fixed concentration. After incubation one hour at 37° C., the plate was washed and a solution of Penta-His-HRP antibody was distributed, this step was followed by an additional incubation time of one hour at 37° C. Finally, the plate was washed and TMB was added for colorimetric revelation, the enzymatic reaction is stopped by H₂SO₄ solution. The results were determined according to the absorbance at 450 nm. The relative binding potency was calculated by dividing the reference EC₅₀ with affinity matured variants EC₅₀ (Table 8).

[5] = target: T2, soluble histidine-tagged form of human …; experiment: competitive ELISA; 15C1 reference EC50 divided by variant EC50
Experimental: as §2

[6] = target: T2, soluble histidine-tagged form of human …; experiment: competitive ELISA; lower end of the range, tied to 1E11.C4 by Table 8 (2.5 there)
Experimental: The VH and VL cDNA sequences in their appropriate expression vectors were transfected into mammalian cells using the Fugene 6 Transfection Reagent (Roche, Basel, Switzerland). Briefly, Peak cells were cultured in 6-well plates at a concentration of 6×10⁵ cells per well in 2 mL culture media containing fetal bovine serum. The expression vectors, encoding the candidate VH and VL sequences, were co-transfected into the cells using the Fugene 6 Transfection Reagent according to manufacturer's instructions. One day following transfection, the culture media was aspirated, and 3 mL of fresh serum-free media was added to cells and cultured for three days at 37° C. Following three days culture period, the supernatant was harvested for IgG purified on protein G-Sepharose 4B fast flow columns (Sigma, St. Louis, Mo.) according to manufacturer's instructions. Briefly, supernatants from transfected cells were incubated overnight at 4° C. with ImmunoPure (G) IgG binding buffer (Pierce, Rockford Ill.). […] The eluted IgG fraction was then dialyzed against PBS and the IgG content quantified by absorption at 280 nm. […] Relative binding potency of 1E11 variants was assessed by competitive ELISA. […] The results were determined according to the absorbance at 450 nm. The relative binding potency was calculated by dividing the reference EC₅₀ with affinity matured variants EC₅₀ (Table 8).

[7] = target: T1, cynomolgus monkey TLR4 expressed on …; experiment: summary grade (species binding potential); assay not given
[8] = target: T2, soluble histidine-tagged form of human …; experiment: competitive ELISA, as retold in Example 9 (Table 8 prints 39 for this clone)
Experimental: Briefly, supernatants from transfected cells were incubated overnight at 4° C. with ImmunoPure (G) IgG binding buffer (Pierce, Rockford Ill.). Samples were then passed over Protein G-Sepharose 4B fast flow columns and the IgG consequently purified using elution buffer. The eluted IgG fraction was then dialyzed against PBS and the IgG content quantified by absorption at 280 nm. Purity and IgG integrity were verified by SDS-PAGE. Relative binding potency of 1E11 variants was assessed by competitive ELISA. Briefly, 15C1 antibody was coated overnight in a 96-well Maxisorp plate and then blocked with PBS-BSA. The 15C1 reference antibody and affinity matured variants of 1E11 were added to the plate at a fixed concentration and a 3.5-fold serial dilution of the samples was performed. Then, soluble histidine-tagged form of human TLR4/MD2 complex was added to the plate at a fixed concentration. After incubation one hour at 37° C., the plate was washed and a solution of Penta-His-HRP antibody was distributed, this step was followed by an additional incubation time of one hour at 37° C. Finally, the plate was washed and TMB was added for colorimetric revelation, the enzymatic reaction is stopped by H₂SO₄ solution. The results were determined according to the absorbance at 450 nm. The relative binding potency was calculated by dividing the reference EC₅₀ with affinity matured variants EC₅₀ (Table 8). […]

[9] = target: T3, cynomolgus monkey TLR4 in cynomolgus monkey whole blood (cynomolgus monkey, UniProt Q9TSP2 24-826 (Papio anubis entry)); experiment: cell-based or functional assay
T3 chain: T1 chain

- binding result [1]: binds
B1: 1A1 antibody (IgG1) (antibody, V domains shown)
VH: QVQLQESGPGLVKPSDTLSLTCAVSGYSITGGYSWHWIRQPPGKGLEWMGYIHYSGYTDFNPSLKTRITISRDTSKNQFSLKLSSVTAVDTAVYYCARKDSGRLLPYWGQGTLVTVSS
VL: EIVLTQSPDFQSVTPKEKVTITCRASQSISDHLHWYQQKPDQSPKLLIKYASHAISGVPSRFSGSGSGTDFTLTINSLEAEDAATYYCQQGHSFPLTFGGGTKVEIK
notes: also called 1A1 Mab

- binding result [2]: no binding
- IC50, inhibition of IL-6 production in human whole blood assay [3]: ~0.22 µg/mL
- EC50 [4]: 0.63 µg/mL
B2: humanized anti-TLR4 antibody 15C1 (antibody, V domains shown)
VH: B1 VH with S101P, G102S, R103D, L104A, L105F
VL: B1 VL
notes: also called 15C1 Mab; parental antibody 15C1

- Relative binding potency increase [5]: 2.5 fold
- relative binding potency (fold-increase compared to 15C1) [6]: 3 fold
- binding result [7]: binds
- EC50 [4]: 0.251 µg/mL
B3: 1E11.C4 antibody (IgG1) (antibody, V domains shown)
VH: B1 VH with Y27F, S28P, T30G, G31Q, R103N, L104Y, L105F
VL: B1 VL

- binding result [1]: binds
B4: 1D10 antibody (IgG1) (antibody, V domains shown)
VH: B1 VH with R103H, L104N
VL: B1 VL
notes: also called 1D10 Mab

- binding result [1]: binds
B5: 1A6 antibody (IgG1) (antibody, V domains shown)
VH: B1 VH with R103K, L104W
VL: B1 VL
notes: also called 1A6 Mab

- binding result [1]: binds
B6: 1C7 antibody (IgG1) (antibody, V domains shown)
VH: B1 VH with R103H, L104N, L105Y
VL: B1 VL
notes: also called 1C7 Mab

- Relative binding potency increase [5]: 39 fold
- IC50, inhibition of IL-6 production in human whole blood assay [3]: 0.05 µg/mL
- fold better than 15C1 at blocking human TLR4 (human whole blood assay) [3]: 5 fold
- binding result [7]: binds
- EC50 [4]: 0.016 µg/mL
- increase in binding potency (fold, compared to 15C1) [8]: 40 fold
B7: 1E11.C2E3 antibody (IgG1) (antibody, V domains shown)
VH: B1 VH with S28P, T30R, G31F, R103N, L104Y, L105F
VL: B1 VL with H92Y, S93D

- binding result [1]: binds
B8: 1C10 antibody (IgG1) (antibody, V domains shown)
VH: B1 VH with R103K, L104N, L105F
VL: B1 VL
notes: also called 1C10 Mab

- binding result [1]: binds
B9: 1C12 antibody (IgG1) (antibody, V domains shown)
VH: B1 VH with R103Q, L105F
VL: B1 VL
notes: also called 1C12 Mab

- Relative binding potency increase [5]: 17 fold
- IC50, inhibition of IL-6 production in human whole blood assay [3]: 0.07 µg/mL
- fold better than 15C1 at blocking human TLR4 (human whole blood assay) [3]: 3 fold
- IC50, inhibition of IL-6 production in cynomolgus monkey whole blood assay [9]: ~0.5 µg/mL
- EC50 [4]: 0.036 µg/mL
B10: 1E11.C2 antibody (IgG1) (antibody, V domains shown)
VH: B1 VH with S28P, T30R, G31F, R103N, L104Y, L105F
VL: B1 VL

- binding result [1]: binds
B11: 1G12 antibody (IgG1) (antibody, V domains shown)
VH: B1 VH with L104Y, L105W
VL: B1 VL
notes: also called 1G12 Mab

- binding result [1]: binds
B12: 1E11 N103D antibody (IgG1) (antibody, V domains shown)
VH: B1 VH with R103D, L104Y, L105F
VL: B1 VL
notes: 1E11 with the N103D mutation in the heavy chain; also called 1E11 N103D Mab

- binding result [1]: binds
B13: 1B12 antibody (IgG1) (antibody, V domains shown)
VH: B1 VH with R103H, L105M
VL: B1 VL
notes: also called 1B12 Mab
